To fix the notation:
B1: NIgG4E1A1(G4S)3 (Fc fusion)
chain 1: DVQLQESGGGLVQAGGSLRLSCLASGRTFTTTSGYNMGWFRQAPGKEREFVAGIKWVSGSNRAYAESVKGRFTISRDNAKNTVYLQMNSLKPEDTAVYYCAAATGQSYVPIREYEYVYWGQGTQVTVSGGGGSGGGGSGGGGSGPPCPPCPAPEFLGGPSVFLFPPKPKDTLMISRTPEVTCVVVDVSQEDPEVQFNWYVDGVEVHNAKTKPREEQFNSTYRVVSVLTVLHQDWLNGKEYKCKVSNKGLPSSIEKTISKAKGQPREPQVYTLPPCQEEMTKNQVSLWCLVKGFYPSDIAVEWESNGQPENNYKTTPPVLDSDGSFFLYSRLTVDKSRWQEGNVFSCSVMHEALHNHYTQKSLSLSLGK
chain 2: EVQLLESGGGLVQPGGSLRLSCAASGFTFGNYDMAWVRQAPGKRPEWVSSIDTGGDITHYADSVKGRFTISRDNAKNTLYLQMNSLRPEDTAVYWCATDEEYALGPNEFDYYGQGTLVTVSSGGGGSGGGGSGGGGSGPPCPPCPAPEFLGGPSVFLFPPKPKDTLMISRTPEVTCVVVDVSQEDPEVQFNWYVDGVEVHNAKTKPREEQFNSTYRVVSVLTVLHQDWLNGKEYKCKVSNKGLPSSIEKTISKAKGQPREPQVCTLPPSQEEMTKNQVSLSCAVKGFYPSDIAVEWESNGQPENNYKTTPPVLDSDGSFFLVSRLTVDKSRWQEGNVFSCSVMHEALHNHYTQKSLSLSLGK
B2: CIgG4E1A1(G4S)2 (Fc fusion)
chain 1: GPPCPPCPAPEFLGGPSVFLFPPKPKDTLMISRTPEVTCVVVDVSQEDPEVQFNWYVDGVEVHNAKTKPREEQFNSTYRVVSVLTVLHQDWLNGKEYKCKVSNKGLPSSIEKTISKAKGQPREPQVYTLPPCQEEMTKNQVSLWCLVKGFYPSDIAVEWESNGQPENNYKTTPPVLDSDGSFFLYSRLTVDKSRWQEGNVFSCSVMHEALHNHYTQKSLSLSLGKGGGGSGGGGSDVQLQESGGGLVQAGGSLRLSCLASGRTFTTTSGYNMGWFRQAPGKEREFVAGIKWVSGSNRAYAESVKGRFTISRDNAKNTVYLQMNSLKPEDTAVYYCAAATGQSYVPIREYEYVYWGQGTQVTVS
chain 2: GPPCPPCPAPEFLGGPSVFLFPPKPKDTLMISRTPEVTCVVVDVSQEDPEVQFNWYVDGVEVHNAKTKPREEQFNSTYRVVSVLTVLHQDWLNGKEYKCKVSNKGLPSSIEKTISKAKGQPREPQVCTLPPSQEEMTKNQVSLSCAVKGFYPSDIAVEWESNGQPENNYKTTPPVLDSDGSFFLVSRLTVDKSRWQEGNVFSCSVMHEALHNHYTQKSLSLSLGKGGGGSGGGGSEVQLLESGGGLVQPGGSLRLSCAASGFTFGNYDMAWVRQAPGKRPEWVSSIDTGGDITHYADSVKGRFTISRDNAKNTLYLQMNSLRPEDTAVYWCATDEEYALGPNEFDYYGQGTLVTVSS
B3: CIgG4E1A1(RS) (Fc fusion)
chain 1: GPPCPPCPAPEFLGGPSVFLFPPKPKDTLMISRTPEVTCVVVDVSQEDPEVQFNWYVDGVEVHNAKTKPREEQFNSTYRVVSVLTVLHQDWLNGKEYKCKVSNKGLPSSIEKTISKAKGQPREPQVYTLPPCQEEMTKNQVSLWCLVKGFYPSDIAVEWESNGQPENNYKTTPPVLDSDGSFFLYSRLTVDKSRWQEGNVFSCSVMHEALHNHYTQKSLSLSLGKRSDVQLQESGGGLVQAGGSLRLSCLASGRTFTTTSGYNMGWFRQAPGKEREFVAGIKWVSGSNRAYAESVKGRFTISRDNAKNTVYLQMNSLKPEDTAVYYCAAATGQSYVPIREYEYVYWGQGTQVTVS
chain 2: GPPCPPCPAPEFLGGPSVFLFPPKPKDTLMISRTPEVTCVVVDVSQEDPEVQFNWYVDGVEVHNAKTKPREEQFNSTYRVVSVLTVLHQDWLNGKEYKCKVSNKGLPSSIEKTISKAKGQPREPQVCTLPPSQEEMTKNQVSLSCAVKGFYPSDIAVEWESNGQPENNYKTTPPVLDSDGSFFLVSRLTVDKSRWQEGNVFSCSVMHEALHNHYTQKSLSLSLGKRSEVQLLESGGGLVQPGGSLRLSCAASGFTFGNYDMAWVRQAPGKRPEWVSSIDTGGDITHYADSVKGRFTISRDNAKNTLYLQMNSLRPEDTAVYWCATDEEYALGPNEFDYYGQGTLVTVSS
B4: NIgG4E1A1(RS) (Fc fusion)
chain 1: DVQLQESGGGLVQAGGSLRLSCLASGRTFTTTSGYNMGWFRQAPGKEREFVAGIKWVSGSNRAYAESVKGRFTISRDNAKNTVYLQMNSLKPEDTAVYYCAAATGQSYVPIREYEYVYWGQGTQVTVSRSGPPCPPCPAPEFLGGPSVFLFPPKPKDTLMISRTPEVTCVVVDVSQEDPEVQFNWYVDGVEVHNAKTKPREEQFNSTYRVVSVLTVLHQDWLNGKEYKCKVSNKGLPSSIEKTISKAKGQPREPQVYTLPPCQEEMTKNQVSLWCLVKGFYPSDIAVEWESNGQPENNYKTTPPVLDSDGSFFLYSRLTVDKSRWQEGNVFSCSVMHEALHNHYTQKSLSLSLGK
chain 2: EVQLLESGGGLVQPGGSLRLSCAASGFTFGNYDMAWVRQAPGKRPEWVSSIDTGGDITHYADSVKGRFTISRDNAKNTLYLQMNSLRPEDTAVYWCATDEEYALGPNEFDYYGQGTLVTVSSRSGPPCPPCPAPEFLGGPSVFLFPPKPKDTLMISRTPEVTCVVVDVSQEDPEVQFNWYVDGVEVHNAKTKPREEQFNSTYRVVSVLTVLHQDWLNGKEYKCKVSNKGLPSSIEKTISKAKGQPREPQVCTLPPSQEEMTKNQVSLSCAVKGFYPSDIAVEWESNGQPENNYKTTPPVLDSDGSFFLVSRLTVDKSRWQEGNVFSCSVMHEALHNHYTQKSLSLSLGK
B5: CIgG4E1A1(G4S)1 (Fc fusion)
chain 1: GPPCPPCPAPEFLGGPSVFLFPPKPKDTLMISRTPEVTCVVVDVSQEDPEVQFNWYVDGVEVHNAKTKPREEQFNSTYRVVSVLTVLHQDWLNGKEYKCKVSNKGLPSSIEKTISKAKGQPREPQVYTLPPCQEEMTKNQVSLWCLVKGFYPSDIAVEWESNGQPENNYKTTPPVLDSDGSFFLYSRLTVDKSRWQEGNVFSCSVMHEALHNHYTQKSLSLSLGKGGGGSDVQLQESGGGLVQAGGSLRLSCLASGRTFTTTSGYNMGWFRQAPGKEREFVAGIKWVSGSNRAYAESVKGRFTISRDNAKNTVYLQMNSLKPEDTAVYYCAAATGQSYVPIREYEYVYWGQGTQVTVS
chain 2: GPPCPPCPAPEFLGGPSVFLFPPKPKDTLMISRTPEVTCVVVDVSQEDPEVQFNWYVDGVEVHNAKTKPREEQFNSTYRVVSVLTVLHQDWLNGKEYKCKVSNKGLPSSIEKTISKAKGQPREPQVCTLPPSQEEMTKNQVSLSCAVKGFYPSDIAVEWESNGQPENNYKTTPPVLDSDGSFFLVSRLTVDKSRWQEGNVFSCSVMHEALHNHYTQKSLSLSLGKGGGGSEVQLLESGGGLVQPGGSLRLSCAASGFTFGNYDMAWVRQAPGKRPEWVSSIDTGGDITHYADSVKGRFTISRDNAKNTLYLQMNSLRPEDTAVYWCATDEEYALGPNEFDYYGQGTLVTVSS
B6: NIgG4E1A1(G4S)1 (Fc fusion)
chain 1: DVQLQESGGGLVQAGGSLRLSCLASGRTFTTTSGYNMGWFRQAPGKEREFVAGIKWVSGSNRAYAESVKGRFTISRDNAKNTVYLQMNSLKPEDTAVYYCAAATGQSYVPIREYEYVYWGQGTQVTVSGGGGSGPPCPPCPAPEFLGGPSVFLFPPKPKDTLMISRTPEVTCVVVDVSQEDPEVQFNWYVDGVEVHNAKTKPREEQFNSTYRVVSVLTVLHQDWLNGKEYKCKVSNKGLPSSIEKTISKAKGQPREPQVYTLPPCQEEMTKNQVSLWCLVKGFYPSDIAVEWESNGQPENNYKTTPPVLDSDGSFFLYSRLTVDKSRWQEGNVFSCSVMHEALHNHYTQKSLSLSLGK
chain 2: EVQLLESGGGLVQPGGSLRLSCAASGFTFGNYDMAWVRQAPGKRPEWVSSIDTGGDITHYADSVKGRFTISRDNAKNTLYLQMNSLRPEDTAVYWCATDEEYALGPNEFDYYGQGTLVTVSSGGGGSGPPCPPCPAPEFLGGPSVFLFPPKPKDTLMISRTPEVTCVVVDVSQEDPEVQFNWYVDGVEVHNAKTKPREEQFNSTYRVVSVLTVLHQDWLNGKEYKCKVSNKGLPSSIEKTISKAKGQPREPQVCTLPPSQEEMTKNQVSLSCAVKGFYPSDIAVEWESNGQPENNYKTTPPVLDSDGSFFLVSRLTVDKSRWQEGNVFSCSVMHEALHNHYTQKSLSLSLGK
B7: CIgG4D2A1(G4S)3 (Fc fusion)
chain 1: GPPCPPCPAPEFLGGPSVFLFPPKPKDTLMISRTPEVTCVVVDVSQEDPEVQFNWYVDGVEVHNAKTKPREEQFNSTYRVVSVLTVLHQDWLNGKEYKCKVSNKGLPSSIEKTISKAKGQPREPQVYTLPPCQEEMTKNQVSLWCLVKGFYPSDIAVEWESNGQPENNYKTTPPVLDSDGSFFLYSRLTVDKSRWQEGNVFSCSVMHEALHNHYTQKSLSLSLGKGGGGSGGGGSGGGGSDVQLQESGGGLVEAGGSLRLSCVASGRTFSGWSMGWFRQAPGKEREFVAAISWVGSWIGGTVYSNSVKGRFTISRDNARTTVYLQMNSLKPEDTAVYFCAAANSETPRIFASEYDYWGQGTQVTVS
chain 2: GPPCPPCPAPEFLGGPSVFLFPPKPKDTLMISRTPEVTCVVVDVSQEDPEVQFNWYVDGVEVHNAKTKPREEQFNSTYRVVSVLTVLHQDWLNGKEYKCKVSNKGLPSSIEKTISKAKGQPREPQVCTLPPSQEEMTKNQVSLSCAVKGFYPSDIAVEWESNGQPENNYKTTPPVLDSDGSFFLVSRLTVDKSRWQEGNVFSCSVMHEALHNHYTQKSLSLSLGKGGGGSGGGGSGGGGSEVQLLESGGGLVQPGGSLRLSCAASGFTFGNYDMAWVRQAPGKRPEWVSSIDTGGDITHYADSVKGRFTISRDNAKNTLYLQMNSLRPEDTAVYWCATDEEYALGPNEFDYYGQGTLVTVSS
B8: NIgG4E1A1(G4S)2 (Fc fusion)
chain 1: DVQLQESGGGLVQAGGSLRLSCLASGRTFTTTSGYNMGWFRQAPGKEREFVAGIKWVSGSNRAYAESVKGRFTISRDNAKNTVYLQMNSLKPEDTAVYYCAAATGQSYVPIREYEYVYWGQGTQVTVSGGGGSGGGGSGPPCPPCPAPEFLGGPSVFLFPPKPKDTLMISRTPEVTCVVVDVSQEDPEVQFNWYVDGVEVHNAKTKPREEQFNSTYRVVSVLTVLHQDWLNGKEYKCKVSNKGLPSSIEKTISKAKGQPREPQVYTLPPCQEEMTKNQVSLWCLVKGFYPSDIAVEWESNGQPENNYKTTPPVLDSDGSFFLYSRLTVDKSRWQEGNVFSCSVMHEALHNHYTQKSLSLSLGK
chain 2: EVQLLESGGGLVQPGGSLRLSCAASGFTFGNYDMAWVRQAPGKRPEWVSSIDTGGDITHYADSVKGRFTISRDNAKNTLYLQMNSLRPEDTAVYWCATDEEYALGPNEFDYYGQGTLVTVSSGGGGSGGGGSGPPCPPCPAPEFLGGPSVFLFPPKPKDTLMISRTPEVTCVVVDVSQEDPEVQFNWYVDGVEVHNAKTKPREEQFNSTYRVVSVLTVLHQDWLNGKEYKCKVSNKGLPSSIEKTISKAKGQPREPQVCTLPPSQEEMTKNQVSLSCAVKGFYPSDIAVEWESNGQPENNYKTTPPVLDSDGSFFLVSRLTVDKSRWQEGNVFSCSVMHEALHNHYTQKSLSLSLGK

This passage reports EC50 and Max effect/effect 1 µM results from patent US20250171562A1.

One may read the EC50 as the concentration needed to bring the measured effect to its halfway point.

For the test, the target named is mixture of three Der p 2 specific recombinant human IgE clones H10, H12, P4E (human) (UniProt P01854). In words: RBL-SX38 IgE displacement, FACS.
Sequence of mixture of three Der p 2 specific recombinant human IgE clones H10, H12, P4E (human) (P01854 other isoform, or with tags, fused parts or gaps): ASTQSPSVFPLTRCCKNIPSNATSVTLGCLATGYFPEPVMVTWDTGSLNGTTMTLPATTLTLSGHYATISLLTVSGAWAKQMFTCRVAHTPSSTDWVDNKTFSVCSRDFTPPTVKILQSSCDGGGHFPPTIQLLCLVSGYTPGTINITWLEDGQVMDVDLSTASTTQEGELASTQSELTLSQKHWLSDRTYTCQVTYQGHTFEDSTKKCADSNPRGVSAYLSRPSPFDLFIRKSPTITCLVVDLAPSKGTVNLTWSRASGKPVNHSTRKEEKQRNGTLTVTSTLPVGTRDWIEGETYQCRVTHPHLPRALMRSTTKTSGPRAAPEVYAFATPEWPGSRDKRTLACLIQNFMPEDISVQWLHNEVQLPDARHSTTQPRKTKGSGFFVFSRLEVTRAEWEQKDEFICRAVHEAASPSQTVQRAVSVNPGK
In the case of B1, the EC50 was 3.7 nM and the Max effect/effect 1 µM came out at 98%.
With B2, the EC50 is 35.6 nM and the Max effect/effect 1 µM was 99%.
As to B3, the Max effect/effect 1 µM is 9%.
As for B4, the EC50 came out at 8.7 nM and the Max effect/effect 1 µM stood at 97%.
The like results for B5 were, in that order, 96.1 nM and 95%.
The like results for B6 were, in that order, 7.1 nM and 96%.
The like results for B7 were, in that order, 28.8 nM and 99%.
For the molecule B8, the EC50 is 4.8 nM and the Max effect/effect 1 µM came to 94%.
